In patent US20170355766A1 (Xencor, published 2017):
Where a chain is given by its changes, count along the chain named. Names and notes keep the numbering of the source.

T1: human FcγRIIb receptor protein (R&D Systems) (human, UniProt P31994 46-217)
T1 construct: Analyte injected over antibodies captured on a protein A/G chip (Biacore); also called CD32b
T1 sequence (looked up): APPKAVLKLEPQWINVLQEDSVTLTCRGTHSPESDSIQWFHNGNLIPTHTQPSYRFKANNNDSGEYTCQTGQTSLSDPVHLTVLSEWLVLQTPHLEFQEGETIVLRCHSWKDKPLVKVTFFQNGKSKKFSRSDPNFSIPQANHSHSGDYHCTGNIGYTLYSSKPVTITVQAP

T2: human H131 FcγRIIa receptor protein (6xHis and GST tags) (human, UniProt P12318 34-217, limits assumed)
T2 construct: also called HIIa
T2 sequence (looked up): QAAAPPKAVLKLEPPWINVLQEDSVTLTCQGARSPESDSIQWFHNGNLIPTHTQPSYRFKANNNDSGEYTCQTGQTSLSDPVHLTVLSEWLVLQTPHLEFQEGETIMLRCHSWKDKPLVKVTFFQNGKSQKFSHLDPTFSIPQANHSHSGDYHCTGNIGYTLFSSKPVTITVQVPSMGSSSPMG

T3: FcγRIIaR (human, UniProt P12318)
T3 construct: recombinant receptor protein with 6xHis and GST tags; also called R131 FcγRIIa
T3 sequence (receptor, looked up): T2 sequence (looked up) with H134R

B1: G237D/S267E (antibody, human IgG1, kappa)
heavy: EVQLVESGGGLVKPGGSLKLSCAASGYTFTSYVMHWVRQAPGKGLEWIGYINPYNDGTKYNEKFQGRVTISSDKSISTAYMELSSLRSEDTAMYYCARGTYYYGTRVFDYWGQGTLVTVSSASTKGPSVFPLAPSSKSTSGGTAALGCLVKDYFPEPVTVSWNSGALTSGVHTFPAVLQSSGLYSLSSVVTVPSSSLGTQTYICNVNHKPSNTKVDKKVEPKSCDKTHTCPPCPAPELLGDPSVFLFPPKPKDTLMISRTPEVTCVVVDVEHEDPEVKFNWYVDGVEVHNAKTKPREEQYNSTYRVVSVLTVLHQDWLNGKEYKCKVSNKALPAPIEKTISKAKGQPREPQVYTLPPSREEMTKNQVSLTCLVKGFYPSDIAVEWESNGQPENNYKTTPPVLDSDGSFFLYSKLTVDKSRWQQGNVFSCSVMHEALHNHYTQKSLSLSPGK
light: DIVMTQSPATLSLSPGERATLSCRSSKSLQNVNGNTYLYWFQQKPGQSPQLLIYRMSNLNSGVPDRFSGSGSGTEFTLTISSLEPEDFAVYYCMQHLEYPITFGAGTKLEIKRTVAAPSVFIFPPSDEQLKSGTASVVCLLNNFYPREAKVQWKVDNALQSGNSQESVTEQDSKDSTYSLSSTLTLSKADYEKHKVYACEVTHQGLSSPVTKSFNRGEC
notes: HuAM4G7 IgG1 Fc variant
B2: L235I (antibody, human IgG1, kappa)
heavy: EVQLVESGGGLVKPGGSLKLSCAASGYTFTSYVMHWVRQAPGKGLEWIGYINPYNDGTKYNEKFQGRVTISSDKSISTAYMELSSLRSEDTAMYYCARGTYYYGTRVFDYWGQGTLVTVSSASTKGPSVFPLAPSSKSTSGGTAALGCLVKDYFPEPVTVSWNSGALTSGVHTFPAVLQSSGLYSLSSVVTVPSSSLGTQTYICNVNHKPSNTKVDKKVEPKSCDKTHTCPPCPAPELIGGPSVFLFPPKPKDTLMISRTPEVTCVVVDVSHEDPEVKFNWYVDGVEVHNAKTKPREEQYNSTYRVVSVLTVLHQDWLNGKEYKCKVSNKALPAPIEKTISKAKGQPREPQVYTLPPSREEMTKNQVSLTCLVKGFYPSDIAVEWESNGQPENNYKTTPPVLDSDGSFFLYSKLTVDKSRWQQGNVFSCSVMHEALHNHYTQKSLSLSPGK
light: B1 light
notes: HuAM4G7 IgG1 Fc variant
B3: L235Y/S267E/H268E (antibody, human IgG1, kappa)
heavy: EVQLVESGGGLVKPGGSLKLSCAASGYTFTSYVMHWVRQAPGKGLEWIGYINPYNDGTKYNEKFQGRVTISSDKSISTAYMELSSLRSEDTAMYYCARGTYYYGTRVFDYWGQGTLVTVSSASTKGPSVFPLAPSSKSTSGGTAALGCLVKDYFPEPVTVSWNSGALTSGVHTFPAVLQSSGLYSLSSVVTVPSSSLGTQTYICNVNHKPSNTKVDKKVEPKSCDKTHTCPPCPAPELYGGPSVFLFPPKPKDTLMISRTPEVTCVVVDVEEEDPEVKFNWYVDGVEVHNAKTKPREEQYNSTYRVVSVLTVLHQDWLNGKEYKCKVSNKALPAPIEKTISKAKGQPREPQVYTLPPSREEMTKNQVSLTCLVKGFYPSDIAVEWESNGQPENNYKTTPPVLDSDGSFFLYSKLTVDKSRWQQGNVFSCSVMHEALHNHYTQKSLSLSPGK
light: B1 light
notes: HuAM4G7 IgG1 Fc variant
B4: L235D/S267E/L328F (antibody, human IgG1, kappa)
heavy: B3 heavy with Y239D, E272H, L332F
light: B1 light
notes: HuAM4G7 IgG1 Fc variant
B5: L235D/S267E (antibody, human IgG1, kappa)
heavy: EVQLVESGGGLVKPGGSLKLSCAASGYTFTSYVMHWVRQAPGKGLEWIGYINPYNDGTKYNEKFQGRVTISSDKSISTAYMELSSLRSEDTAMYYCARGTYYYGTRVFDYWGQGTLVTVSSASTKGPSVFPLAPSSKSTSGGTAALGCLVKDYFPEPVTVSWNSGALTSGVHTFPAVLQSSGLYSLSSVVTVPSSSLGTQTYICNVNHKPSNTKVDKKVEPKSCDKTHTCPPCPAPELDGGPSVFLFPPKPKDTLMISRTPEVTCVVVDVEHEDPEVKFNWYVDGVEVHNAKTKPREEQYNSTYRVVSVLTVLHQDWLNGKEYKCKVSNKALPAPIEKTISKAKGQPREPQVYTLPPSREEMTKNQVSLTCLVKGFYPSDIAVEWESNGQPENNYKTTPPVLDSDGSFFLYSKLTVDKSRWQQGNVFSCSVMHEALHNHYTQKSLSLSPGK
light: B1 light
notes: HuAM4G7 IgG1 Fc variant
B6: L235F/S267E (antibody, human IgG1, kappa)
heavy: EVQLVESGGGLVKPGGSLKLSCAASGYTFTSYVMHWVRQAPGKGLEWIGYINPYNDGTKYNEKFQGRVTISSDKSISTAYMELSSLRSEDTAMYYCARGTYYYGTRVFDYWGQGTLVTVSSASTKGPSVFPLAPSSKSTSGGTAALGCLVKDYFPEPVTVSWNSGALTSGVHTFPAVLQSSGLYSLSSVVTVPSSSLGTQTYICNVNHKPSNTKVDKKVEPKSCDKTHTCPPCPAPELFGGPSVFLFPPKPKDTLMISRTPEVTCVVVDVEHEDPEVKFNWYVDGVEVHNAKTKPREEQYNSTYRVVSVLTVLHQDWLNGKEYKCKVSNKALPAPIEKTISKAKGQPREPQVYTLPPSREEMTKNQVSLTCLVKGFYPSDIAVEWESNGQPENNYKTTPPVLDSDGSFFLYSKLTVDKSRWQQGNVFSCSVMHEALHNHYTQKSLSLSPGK
light: B1 light
notes: HuAM4G7 IgG1 Fc variant
B7: L234E/S267E (antibody, human IgG1, kappa)
heavy: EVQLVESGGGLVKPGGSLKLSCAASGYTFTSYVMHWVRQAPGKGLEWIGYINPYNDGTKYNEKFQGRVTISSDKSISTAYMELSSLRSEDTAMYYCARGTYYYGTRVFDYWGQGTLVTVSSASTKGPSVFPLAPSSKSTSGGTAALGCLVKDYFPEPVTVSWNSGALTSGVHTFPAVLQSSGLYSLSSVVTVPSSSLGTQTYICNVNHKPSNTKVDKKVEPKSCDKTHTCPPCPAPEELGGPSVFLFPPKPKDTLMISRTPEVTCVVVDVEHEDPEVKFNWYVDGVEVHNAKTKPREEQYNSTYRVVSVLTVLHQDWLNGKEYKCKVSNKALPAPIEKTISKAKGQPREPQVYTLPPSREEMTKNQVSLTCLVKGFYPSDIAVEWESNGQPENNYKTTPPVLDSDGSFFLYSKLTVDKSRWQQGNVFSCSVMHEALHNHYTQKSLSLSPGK
light: B1 light
notes: HuAM4G7 IgG1 Fc variant
B8: L235Y/G236D/S267E (antibody, human IgG1, kappa)
heavy: B3 heavy with G240D, E272H
light: B1 light
notes: HuAM4G7 IgG1 Fc variant
B9: L235Y (antibody, human IgG1, kappa)
heavy: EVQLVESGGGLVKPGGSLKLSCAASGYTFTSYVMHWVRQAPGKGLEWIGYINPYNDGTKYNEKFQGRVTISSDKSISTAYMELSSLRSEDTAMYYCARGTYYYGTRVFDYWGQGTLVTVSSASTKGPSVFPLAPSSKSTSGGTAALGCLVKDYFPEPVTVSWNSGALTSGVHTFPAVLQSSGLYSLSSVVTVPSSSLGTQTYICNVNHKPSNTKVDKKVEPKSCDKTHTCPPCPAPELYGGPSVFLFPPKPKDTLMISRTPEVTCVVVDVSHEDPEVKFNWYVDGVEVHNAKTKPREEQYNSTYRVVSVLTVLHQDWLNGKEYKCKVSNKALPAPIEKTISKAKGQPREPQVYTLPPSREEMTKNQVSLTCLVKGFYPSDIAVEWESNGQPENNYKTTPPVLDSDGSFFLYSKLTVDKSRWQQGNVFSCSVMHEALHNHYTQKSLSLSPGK
light: B1 light
notes: HuAM4G7 IgG1 Fc variant
B10: L235Y/S239D/S267E (antibody, human IgG1, kappa)
heavy: B3 heavy with S243D, E272H
light: B1 light
notes: HuAM4G7 IgG1 Fc variant
B11: H268E (antibody, human IgG1, kappa)
heavy: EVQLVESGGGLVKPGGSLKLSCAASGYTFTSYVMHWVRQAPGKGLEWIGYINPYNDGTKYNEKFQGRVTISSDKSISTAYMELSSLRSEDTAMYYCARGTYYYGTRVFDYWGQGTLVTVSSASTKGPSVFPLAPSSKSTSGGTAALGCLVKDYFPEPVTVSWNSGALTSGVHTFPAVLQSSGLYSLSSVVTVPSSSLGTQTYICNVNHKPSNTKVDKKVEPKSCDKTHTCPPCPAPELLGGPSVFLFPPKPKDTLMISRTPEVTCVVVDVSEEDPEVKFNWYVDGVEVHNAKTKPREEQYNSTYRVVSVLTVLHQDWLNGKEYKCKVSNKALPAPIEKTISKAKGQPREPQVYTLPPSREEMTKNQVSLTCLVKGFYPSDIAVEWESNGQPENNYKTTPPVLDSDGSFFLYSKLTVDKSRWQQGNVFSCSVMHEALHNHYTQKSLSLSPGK
light: B1 light
notes: HuAM4G7 IgG1 Fc variant
B12: L234F/S267E (antibody, human IgG1, kappa)
heavy: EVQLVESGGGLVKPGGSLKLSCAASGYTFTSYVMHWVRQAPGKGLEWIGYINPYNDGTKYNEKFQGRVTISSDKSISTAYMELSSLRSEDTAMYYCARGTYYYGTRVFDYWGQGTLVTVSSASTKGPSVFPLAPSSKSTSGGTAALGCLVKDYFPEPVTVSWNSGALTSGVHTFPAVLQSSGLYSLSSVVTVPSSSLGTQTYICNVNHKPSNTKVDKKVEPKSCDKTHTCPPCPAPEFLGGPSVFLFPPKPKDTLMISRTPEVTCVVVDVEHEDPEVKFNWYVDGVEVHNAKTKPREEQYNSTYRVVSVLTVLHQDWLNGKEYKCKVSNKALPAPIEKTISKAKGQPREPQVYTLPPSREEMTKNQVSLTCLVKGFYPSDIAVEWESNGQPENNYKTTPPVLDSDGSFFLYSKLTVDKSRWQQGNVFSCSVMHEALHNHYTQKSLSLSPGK
light: B1 light
notes: HuAM4G7 IgG1 Fc variant
B13: L234E/S267E/L328F (antibody, human IgG1, kappa)
heavy: B3 heavy with L238E, Y239L, E272H, L332F
light: B1 light
notes: HuAM4G7 IgG1 Fc variant
B14: L235Y/S267E/L328F (antibody, human IgG1, kappa)
heavy: B3 heavy with E272H, L332F
light: B1 light
notes: HuAM4G7 IgG1 Fc variant
B15: L235A (antibody, human IgG1, kappa)
heavy: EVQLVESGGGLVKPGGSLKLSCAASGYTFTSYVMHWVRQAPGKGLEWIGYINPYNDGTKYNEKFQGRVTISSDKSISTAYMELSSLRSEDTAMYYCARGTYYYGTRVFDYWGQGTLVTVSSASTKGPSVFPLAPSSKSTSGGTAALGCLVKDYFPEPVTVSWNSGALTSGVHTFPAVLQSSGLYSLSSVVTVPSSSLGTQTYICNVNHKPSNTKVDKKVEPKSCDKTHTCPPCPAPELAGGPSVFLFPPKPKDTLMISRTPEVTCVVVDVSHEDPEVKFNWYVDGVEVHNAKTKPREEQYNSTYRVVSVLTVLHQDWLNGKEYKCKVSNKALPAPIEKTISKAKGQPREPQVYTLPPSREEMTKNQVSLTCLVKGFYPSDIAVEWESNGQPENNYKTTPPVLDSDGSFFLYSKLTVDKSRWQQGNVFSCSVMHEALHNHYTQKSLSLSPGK
light: B1 light
notes: HuAM4G7 IgG1 Fc variant
B16: H268D (antibody, human IgG1, kappa)
heavy: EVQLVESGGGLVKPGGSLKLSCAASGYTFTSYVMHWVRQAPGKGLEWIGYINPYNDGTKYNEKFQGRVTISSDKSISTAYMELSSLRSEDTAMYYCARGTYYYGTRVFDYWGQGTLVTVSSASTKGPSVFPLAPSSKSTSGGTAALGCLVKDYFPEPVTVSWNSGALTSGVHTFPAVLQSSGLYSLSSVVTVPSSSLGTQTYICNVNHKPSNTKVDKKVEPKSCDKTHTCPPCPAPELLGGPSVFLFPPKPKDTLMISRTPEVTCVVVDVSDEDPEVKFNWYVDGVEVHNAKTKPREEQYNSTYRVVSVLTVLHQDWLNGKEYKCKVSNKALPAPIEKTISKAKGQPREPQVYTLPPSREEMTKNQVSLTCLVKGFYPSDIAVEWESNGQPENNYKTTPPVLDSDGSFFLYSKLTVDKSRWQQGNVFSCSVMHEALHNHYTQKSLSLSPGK
light: B1 light
notes: HuAM4G7 IgG1 Fc variant
B17: L234F (antibody, human IgG1, kappa)
heavy: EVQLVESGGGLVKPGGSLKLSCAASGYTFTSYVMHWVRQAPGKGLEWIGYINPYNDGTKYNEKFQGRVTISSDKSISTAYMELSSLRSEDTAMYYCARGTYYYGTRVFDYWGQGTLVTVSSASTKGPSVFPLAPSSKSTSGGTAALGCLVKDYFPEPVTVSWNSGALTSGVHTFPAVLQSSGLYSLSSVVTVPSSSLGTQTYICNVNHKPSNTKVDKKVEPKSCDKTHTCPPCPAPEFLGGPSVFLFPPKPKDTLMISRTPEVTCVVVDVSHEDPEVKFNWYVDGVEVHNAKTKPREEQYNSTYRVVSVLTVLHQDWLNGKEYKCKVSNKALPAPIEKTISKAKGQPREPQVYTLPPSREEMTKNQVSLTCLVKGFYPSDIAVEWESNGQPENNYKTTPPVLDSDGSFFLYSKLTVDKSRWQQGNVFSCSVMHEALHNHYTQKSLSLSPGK
light: B1 light
notes: HuAM4G7 IgG1 Fc variant

Target: T4, human FcγRI receptor protein (R&D Systems) (human, UniProt P12314 16-288)
T4 construct: also called CD64
Experiment: SPR (Biacore)

T4 sequence (P12314 16-288 limits assumed): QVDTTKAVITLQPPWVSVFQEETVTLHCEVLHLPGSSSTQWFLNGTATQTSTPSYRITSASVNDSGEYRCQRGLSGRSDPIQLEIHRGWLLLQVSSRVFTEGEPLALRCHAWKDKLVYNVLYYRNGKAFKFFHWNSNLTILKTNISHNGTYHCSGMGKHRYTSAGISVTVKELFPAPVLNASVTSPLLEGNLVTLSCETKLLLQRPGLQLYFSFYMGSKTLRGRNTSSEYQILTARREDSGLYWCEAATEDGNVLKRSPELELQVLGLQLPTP

Fold FcγRI [fold] | binding result | Binder
0.0874 | – | B1
0.0197 | – | B2
0.0103 | – | B3
0.00057 | – | B4
0.00039 | – | B5
0.0176 | – | B6
0.131 | – | B7
– | no binding | B8
0.00232 | – | B9
1.07 | – | B10
2.74 | – | B11
0.661 | – | B12
0.0425 | – | B13
0.00436 | – | B14
0.0179 | – | B15
2.35 | – | B16
0.0362 | – | B17

Target: T5, human V158 FcγRIIIa receptor protein (6xHis and GST tags) (human, UniProt P08637 17-208, limits assumed)
T5 construct: also called VIIIa
Experiment: SPR (Biacore)

T5 sequence (P08637 17-208 F176V limits assumed): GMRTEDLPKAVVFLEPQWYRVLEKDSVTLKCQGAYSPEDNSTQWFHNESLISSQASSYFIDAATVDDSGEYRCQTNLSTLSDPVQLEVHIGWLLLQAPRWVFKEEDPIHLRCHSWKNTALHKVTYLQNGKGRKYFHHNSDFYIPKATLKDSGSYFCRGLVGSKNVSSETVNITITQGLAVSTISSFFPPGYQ

binding result | Fold FcγRIIIaV [fold] | Binder
no binding | – | B1
– | 0.903 | B2
– | 0.428 | B3
no binding | – | B4
no binding | – | B5
no binding | – | B6
no binding | – | B7
no binding | – | B8
– | 0.504 | B9
– | 2.6 | B10
– | 2.19 | B11
– | 0.0938 | B12
no binding | – | B13
no binding | – | B14
– | 0.314 | B15
– | 3.08 | B16
no binding | – | B17

Target: T1, human FcγRIIb receptor protein (R&D …)
Experiment: SPR (Biacore)

Fold FcγRIIb [fold] | Binder
17 | B1
0.908 | B2
69.9 | B3
80.4 | B4
16.7 | B5
28.4 | B6
15.1 | B7
25 | B8
1.05 | B9
116 | B10
2.62 | B11
26.4 | B12
195 | B13
187 | B14
0.351 | B15
3.06 | B16
0.409 | B17

Target: T2, human H131 FcγRIIa receptor protein …
Experiment: SPR (Biacore)

binding result | Fold FcγRIIaH [fold] | Binder
no binding | – | B1
– | 0.181 | B2
– | 0.157 | B3
– | 0.275 | B4
no binding | – | B5
– | 0.402 | B6
no binding | – | B7
no binding | – | B8
– | 1.35 | B9
– | 1.05 | B10
– | 1.43 | B11
– | 0.509 | B12
– | 0.0725 | B13
– | 0.758 | B14
– | 0.0486 | B15
– | 1.89 | B16
no binding | – | B17

Target: T3, FcγRIIaR
Experiment: SPR (Biacore)

Fold FcγRIIaR [fold] | Binder
13.6 | B1
0.666 | B2
48.2 | B3
133 | B4
13 | B5
32.5 | B6
10.7 | B7
9.67 | B8
1.28 | B9
98.9 | B10
3.19 | B11
20.7 | B12
174 | B13
171 | B14
0.166 | B15
4.19 | B16
0.228 | B17
